The values that follow come from paper PMC5657598.

The test deals with Get1/2 heterodimer, cytosolically labeled (Get1-S77C-Cy5 and Get2-S28C-Cy3) (yeast) (UniProt P53192). Nature of the test: FRET or BRET. For orientation: BRET reads energy transfer from a luciferase to a nearby fluorophore.

B1: Get3-D57N (enzyme)
chain: MDLTVEPNLHSLITSTTHKWIFVGGKGGVGKTTSSCSIAIQMALSQPNKQFLLISTNPAHNLSDAFGEKFGKDARKVTGMNNLSCMEIDPSAALKDMNDMAVSRANNNGSDGQGDDLGSLLQGGALADLTGSIPGIDEALSFMEVMKHIKRQEQGEGETFDTVIFDTAPTGHTLRFLQLPNTLSKLLEKFGEITNKLGPMLNSFMGAGNVDISGKLNELKANVETIRQQFTDPDLTTFVCVCISEFLSLYETERLIQELISYDMDVNSIIVNQLLFAENDQEHNCKRCQARWKMQKKYLDQIDELYEDFHVVKMPLCAGEIRGLNNLTKFSQFLNKEYNPITDGKVIYELEDKE
Regarding B1, the equilibrium dissociation constant (Kd) is under 1 nM and the stoichiometry N (Get3 homodimer per Get1/2 heterodimer) is 1.

One may read the Kd as the concentration at which binding is half-saturated.
